Changes are numbered by the printed parent chain. Read-outs that look alike come from different tables or passages of the source.
Tests used:
[1] = target: T1, human CD47, endogenous cell surface form (Raji, CCRF-CEM cells) (human, UniProt Q08722 19-323); test: flow cytometry on Raji cells, MFI (FL4)
T1 construct: the cells carry endogenous CD47; also called cell surface CD47
Procedure: (§1) Humanized antibodies were tested for their ability to bind Raji cells by flow cytometry (FIG. 7). […] Apparent affinities were determined by non-linear fits (Prism Graphpad Software) of the median fluorescence intensities at various antibody concentrations.

[2] = target: T1, human CD47, endogenous cell surface …; test: flow cytometry on Raji cells, MFI (FL4); remark: listed apart in the source
Procedure: as §1

[3] = target: T1, human CD47, endogenous cell surface …; test: flow cytometry on Raji cells, MFI (FL4); remark: listed apart in the source
Procedure: as §1

[4] = target: T1, human CD47, endogenous cell surface …; test: apparent KD, flow cytometry on Raji cells, non-linear fit of median fluorescence
[5] = target: T1, human CD47, endogenous cell surface …; test: flow cytometry on Raji cells, MFI (FL4); remark: listed apart in the source
Procedure: as §1

[6] = target: T1, human CD47, endogenous cell surface …; test: apparent KD, flow cytometry on Raji cells, non-linear fit of median fluorescence; remark: listed apart in the source
Procedure: as §1

[7] = target: T1, human CD47, endogenous cell surface …; test: flow cytometry on Raji cells, MFI (FL4); remark: listed apart in the source
Procedure: as §1

[8] = target: T1, human CD47, endogenous cell surface …; test: flow cytometry on CCRF-CEM cells, FITC anti-mouse IgG, MFI-FL1
Source text: Bound CD47 antibodies were detected using a FITC conjugated anti-mouse IgG secondary antibody (Jackson ImmunoResearch).

[9] = target: T1, human CD47, endogenous cell surface …; test: flow cytometry on Raji cells, MFI (FL4); remark: listed apart in the source
Procedure: as §1

[10] = target: T1, human CD47, endogenous cell surface …; test: flow cytometry on Raji cells, MFI (FL4); remark: listed apart in the source
Procedure: as §1

[11] = target: T1, human CD47, endogenous cell surface …; test: flow cytometry blocking: SIRPa-Fc binding to CCRF-CEM cells with rising antibody (method of Example 3)
[12] = target: T1, human CD47, endogenous cell surface …; test: apparent KD, flow cytometry on cell surface CD47, non-linear fit of median fluorescence
Procedure: Apparent affinities were determined by non-linear fits (Prism Graphpad Software) of the median fluorescence intensities at various antibody concentrations.

B1: chimeric 2A1 antibody (2A1-xi) (antibody, V domains shown)
VH: EVQLQQSGAELVRSGASVKLSCTASGFNIKDYYLHWVKQRPEQGLEWIGWIDPDNGDTEFAPKFQGKATMTADTSSNTAYLQLSSLTSEDTAVYYCNAAYGSSSYPMDYWGQGTSVTV
VL: DIKMTQSPSSLYASLGERVTITCKASQDIHRYLSWFQQKPGKSPKILIYRANRLVDGVPSRFSGSGSGQDYSLTISSLEYEDMGIYYCLQYDEFPYTFGGGTKLEIK
EC50 (read off the curve) [1]: ~0.2 nM
EC50 (read off the curve) [2]: ~0.1 nM
EC50 (read off the curve) [3]: ~0.1 nM
Kd [4]: 0.078 nM
EC50 (read off the curve) [5]: ~0.05 nM
Kd [6]: 0.0364 nM
EC50 (read off the curve) [7]: ~0.05 nM

B2: murine 9E4 antibody (antibody, mouse IgG1, V domains shown)
VH: EVQLRQSGPELVKPGASVKISCKASGYSFTDYYMYWVKQSRVRSLAWIGRINPYTGATGYDQNFKDKASLIVDKSSSTAYMELRSLTSEDSAVYYCARGRNRYDGWFAYWGQGTLVTV
VL: EIQMTQTTSSLSASLGDRVTISCRASQDISNYLNWYQQKPDGTVKLLIYYTSRLHSGVPSRFSGSGSGTDYSLTISNLDQEDIATYFCQQGNALPPTFGGGTNLEIK
EC50 (read off the curve) [8]: ~0.09 nM

B3: humanized antibody AB2.05 (human IgG1) (antibody, V domains shown)
VH: QMQLVQSGAEVKKTGSSVKVSCKASGFNIKDYYLHWVRQAPGQALEWMGWIDPDNGDTEYAQKFQDRVTITRDRSMSTAYMELSSLRSEDTAMYYCNAAYGSSSYPMDYWGQGTTVTV
VL: NIQMTQSPSAMSASVGDRVTITCKASQDIHRYLSWFQQKPGKVPKHLIYRANRLVDGVPSRFSGSGSGTEFTLTISSLQPEDFATYYCLQYDEFPYTFGGGTKVEIK
EC50 (read off the curve) [1]: ~0.3 nM
EC50 (read off the curve) [2]: ~0.1 nM
EC50 (read off the curve) [9]: ~0.2 nM
EC50 (read off the curve) [10]: ~0.2 nM
EC50 (read off the curve) [7]: ~0.1 nM

B4: AB10.14 (antibody, V domains shown)
VH: B3 VH with G56T
VL: B3 VL with K24R, S26R, D28G, D56S
EC50 (read off the curve) [3]: ~0.3 nM

B5: AB2.09 (antibody, V domains shown)
VH: B3 VH
VL: B3 VL with N1D
EC50 (read off the curve) [9]: ~0.2 nM

B6: AB6.14 (antibody, V domains shown)
VH: B3 VH with N55Q
VL: B3 VL with K24R, S26R, D28G, D56S
binding result [3]: binds

B7: AB16.05 (antibody, V domains shown)
VH: B3 VH with F27Y, N28T, I29F, D31Y
VL: B3 VL
binding result [5]: binds

B8: AB15.05 (antibody, V domains shown)
VH: B3 VH with F27Y, N28T, K30T, D31Y
VL: B3 VL
binding result [5]: binds

B9: AB22.05 (antibody, V domains shown)
VH: B3 VH with M81L, E82Q
VL: B3 VL
EC50 (read off the curve) [2]: ~0.1 nM

B10: humanized antibody AB6.12 (human IgG1) (antibody, V domains shown)
VH: B3 VH with N55Q
VL: B3 VL with D56S
notes: also called AB6.12-IgG1; AB6.12-hIgG1
IC50 (read off the curve) [11]: ~0.3 nM
Kd [12]: 0.0386 nM
Kd [6]: 0.0399 nM

B11: AB12.05 (antibody, V domains shown)
VH: B3 VH with F27Y, N28T, I29F, K30T, D31Y
VL: B3 VL
EC50 (read off the curve) [2]: ~0.1 nM

B12: humanized antibody AB6.12-IgG4PE (antibody, V domains shown)
VH: B3 VH with N55Q
VL: B3 VL with D56S
notes: Igkappa light chain; also called AB6.12-hIgG4PE
IC50 (read off the curve) [11]: ~0.3 nM
Kd [12]: 0.0346 nM

B13: AB02.04 (antibody, V domains shown)
VH: B3 VH
VL: B3 VL with N1D, A10S, M11L, V43A, H46S, E70D
notes: humanized variant of 2A1; also called AB2.04
EC50 (read off the curve) [10]: ~0.2 nM

B14: AB24.05 (antibody, V domains shown)
VH: B3 VH with Q1E, M2V, T14P, S16A, S17T, V20I, A24V
VL: B3 VL
EC50 (read off the curve) [10]: ~0.2 nM

B15: AB25.05 (antibody, V domains shown)
VH: B3 VH with Q1E, M2V, T14P, S16A, S17T, V20I, A24V, R38Q, Q43K, A44G
VL: B3 VL
EC50 (read off the curve) [10]: ~0.3 nM

B16: AB02.06 (antibody, V domains shown)
VH: B3 VH
VL: B3 VL with N1D, A10S, M11L, F36Y, V43A, H46R
notes: humanized variant of 2A1; also called AB2.06
binding result [10]: binds

B17: AB03.09 (antibody, V domains shown)
VH: B3 VH with Q1E, M2V
VL: B3 VL with N1D
notes: humanized variant of 2A1; also called AB3.09
EC50 (read off the curve) [9]: ~0.1 nM

B18: AB6.13 (antibody, V domains shown)
VH: B3 VH with N55Q
VL: B3 VL with K24R, S26R, D28G, H46I
EC50 (read off the curve) [3]: ~0.07 nM
EC50 (read off the curve) [7]: ~0.03 nM

B19: AB11.05 (antibody, V domains shown)
VH: B3 VH with S104P
VL: B3 VL
EC50 (read off the curve) [9]: ~0.2 nM

B20: AB10.13 (antibody, V domains shown)
VH: B3 VH with G56T
VL: B3 VL with K24R, S26R, D28G, H46I
binding result [3]: binds

B21: humanized antibody AB6.12-IgG4P (antibody, V domains shown)
VH: B3 VH with N55Q
VL: B3 VL with D56S
notes: Igkappa light chain; also called AB6.12-hIgG4P
IC50 (read off the curve) [11]: ~0.4 nM
Kd [12]: 0.0357 nM

B22: AB2.13 (antibody, V domains shown)
VH: B3 VH
VL: B3 VL with K24R, S26R, D28G, H46I
EC50 (read off the curve) [7]: ~0.05 nM

B23: AB02.03 (antibody, V domains shown)
VH: B3 VH
VL: B3 VL with N1D, A10S, M11L, F36Y, V43A, H46L, E70D, L73F, F83I
notes: humanized variant of 2A1; also called AB2.03
EC50 (read off the curve) [10]: ~0.5 nM

B24: AB23.05 (antibody, V domains shown)
VH: B3 VH with R87T, M93V
VL: B3 VL
EC50 (read off the curve) [2]: ~0.1 nM

B25: AB6.17 (antibody, V domains shown)
VH: B3 VH with N55Q
VL: B3 VL with K24R, S26R, D28G, H46L, D56S
EC50 (read off the curve) [7]: ~0.2 nM

B26: AB17.05 (antibody, V domains shown)
VH: B3 VH with F27Y, N28T, I29F, K30T
VL: B3 VL
EC50 (read off the curve) [9]: ~0.2 nM

B27: AB02.07 (antibody, V domains shown)
VH: B3 VH
VL: DIQMTQSPSSLSASVGDRVTITCRASQDIHRYLAWYQQKPGKVPKLLIYRANRLQSGVPSRFSGSGSGTDFTLTISSLQPEDVATYYCLQYDEFPYTFGQGTKVEIK
notes: humanized variant of 2A1; also called AB2.07
EC50 (read off the curve) [10]: ~0.5 nM
